Data reported in publication PMC4868757, “PDIP46 (DNA polymerase δ interacting protein 46) is an activating factor for human DNA polymerase δ” (Oncotarget, 2016).

Columns and labels:
[1] = biological target: DNA polymerase delta (Pol δ4) (Homo sapiens, UniProt P28340); assay: polymerase activity stimulation assay
His-tagged PDIP46 = biological target: T1, His-tagged PDIP46 (human, UniProt Q9BY77 1-421); assay: pull-down; GST fusion protein incubated with the test protein in 50 mM Tris-HCl pH 7.8, 1 mM EDTA, 150 mM NaCl, 0.1% NP-40, 0.2 mM PMSF, 1 h at 4°C; captured on glutathione beads, washed 8 times; western blot of the test protein; details: both partners purified
T1 construct: PDIP46 (SKAR, POLDIP3), human; Expressed in the pTacTac vector with eight histidine residues added at its N-terminus; also called his-PDIP46; source: E. coli BL21DE3 (pLysS), purified (Ni-NTA agarose); not shown: His8, N-terminal, kept
T1 sequence (looked up): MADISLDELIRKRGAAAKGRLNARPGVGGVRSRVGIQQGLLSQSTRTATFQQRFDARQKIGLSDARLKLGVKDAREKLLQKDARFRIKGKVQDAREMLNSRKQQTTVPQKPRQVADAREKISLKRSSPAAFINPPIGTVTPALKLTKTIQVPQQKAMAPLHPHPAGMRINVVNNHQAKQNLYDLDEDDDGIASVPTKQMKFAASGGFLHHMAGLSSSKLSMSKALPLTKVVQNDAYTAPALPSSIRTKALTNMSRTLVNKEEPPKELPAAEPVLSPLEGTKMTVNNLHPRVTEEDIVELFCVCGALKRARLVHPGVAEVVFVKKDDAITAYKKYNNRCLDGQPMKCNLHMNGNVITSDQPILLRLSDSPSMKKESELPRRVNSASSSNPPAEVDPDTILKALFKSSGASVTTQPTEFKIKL

Human PCNA, recombinant = biological target: T2, Human PCNA, recombinant (human, UniProt P12004 1-261); assay: as above; details: both partners purified
T2 construct: PCNA, human; source: E. coli, purified
T2 sequence (P12004 whole entry): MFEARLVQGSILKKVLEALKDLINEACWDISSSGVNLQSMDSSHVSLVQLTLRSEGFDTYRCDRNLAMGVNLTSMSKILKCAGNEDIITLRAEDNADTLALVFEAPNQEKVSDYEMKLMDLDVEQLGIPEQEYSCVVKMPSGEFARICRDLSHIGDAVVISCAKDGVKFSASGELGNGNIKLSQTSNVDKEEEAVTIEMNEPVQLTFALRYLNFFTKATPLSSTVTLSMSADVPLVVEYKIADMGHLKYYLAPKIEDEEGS

[2] = biological target: T3, His-tagged p50 subunit of Pol δ (human, UniProt P49005 1-469); assay: as above; details: both partners purified
T3 construct: p50 subunit of human DNA polymerase δ; Expressed in the PET33b vector; also called his-p50; source: E. coli BL21DE3 (pLysS), purified (Ni-NTA agarose)
T3 sequence (P49005 whole entry, stated change not applied): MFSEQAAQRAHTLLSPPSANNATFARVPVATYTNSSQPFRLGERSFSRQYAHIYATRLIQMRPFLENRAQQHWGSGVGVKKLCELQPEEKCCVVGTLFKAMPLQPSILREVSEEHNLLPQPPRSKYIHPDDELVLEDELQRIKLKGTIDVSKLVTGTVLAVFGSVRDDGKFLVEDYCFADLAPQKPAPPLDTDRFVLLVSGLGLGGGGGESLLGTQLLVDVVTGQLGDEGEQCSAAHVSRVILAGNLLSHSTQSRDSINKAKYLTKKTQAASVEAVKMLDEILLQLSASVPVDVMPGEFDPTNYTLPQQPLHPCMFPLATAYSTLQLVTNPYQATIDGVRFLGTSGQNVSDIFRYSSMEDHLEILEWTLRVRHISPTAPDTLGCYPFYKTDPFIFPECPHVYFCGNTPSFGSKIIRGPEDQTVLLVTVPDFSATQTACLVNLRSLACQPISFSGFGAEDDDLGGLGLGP

[3] = biological target: T4, Recombinant human DNA polymerase δ holoenzyme (Pol δ4), heterotetramer of p125, p50, p68 and p12 (human, UniProt P28340 1-1107; P49005 1-469; Q15054 1-466; Q9HCU8 1-107); assay: as above; details: both partners purified
T4 construct: p125, catalytic subunit of human Pol δ; p50 subunit of human Pol δ; p68 subunit of human Pol δ; p12 subunit of human Pol δ; also called Pol δ heterotetramer; source: insect cells, purified to near homogeneity; copies: + + +
T4 sequence (P28340 whole entry, stated change not applied, chain 1 of 4): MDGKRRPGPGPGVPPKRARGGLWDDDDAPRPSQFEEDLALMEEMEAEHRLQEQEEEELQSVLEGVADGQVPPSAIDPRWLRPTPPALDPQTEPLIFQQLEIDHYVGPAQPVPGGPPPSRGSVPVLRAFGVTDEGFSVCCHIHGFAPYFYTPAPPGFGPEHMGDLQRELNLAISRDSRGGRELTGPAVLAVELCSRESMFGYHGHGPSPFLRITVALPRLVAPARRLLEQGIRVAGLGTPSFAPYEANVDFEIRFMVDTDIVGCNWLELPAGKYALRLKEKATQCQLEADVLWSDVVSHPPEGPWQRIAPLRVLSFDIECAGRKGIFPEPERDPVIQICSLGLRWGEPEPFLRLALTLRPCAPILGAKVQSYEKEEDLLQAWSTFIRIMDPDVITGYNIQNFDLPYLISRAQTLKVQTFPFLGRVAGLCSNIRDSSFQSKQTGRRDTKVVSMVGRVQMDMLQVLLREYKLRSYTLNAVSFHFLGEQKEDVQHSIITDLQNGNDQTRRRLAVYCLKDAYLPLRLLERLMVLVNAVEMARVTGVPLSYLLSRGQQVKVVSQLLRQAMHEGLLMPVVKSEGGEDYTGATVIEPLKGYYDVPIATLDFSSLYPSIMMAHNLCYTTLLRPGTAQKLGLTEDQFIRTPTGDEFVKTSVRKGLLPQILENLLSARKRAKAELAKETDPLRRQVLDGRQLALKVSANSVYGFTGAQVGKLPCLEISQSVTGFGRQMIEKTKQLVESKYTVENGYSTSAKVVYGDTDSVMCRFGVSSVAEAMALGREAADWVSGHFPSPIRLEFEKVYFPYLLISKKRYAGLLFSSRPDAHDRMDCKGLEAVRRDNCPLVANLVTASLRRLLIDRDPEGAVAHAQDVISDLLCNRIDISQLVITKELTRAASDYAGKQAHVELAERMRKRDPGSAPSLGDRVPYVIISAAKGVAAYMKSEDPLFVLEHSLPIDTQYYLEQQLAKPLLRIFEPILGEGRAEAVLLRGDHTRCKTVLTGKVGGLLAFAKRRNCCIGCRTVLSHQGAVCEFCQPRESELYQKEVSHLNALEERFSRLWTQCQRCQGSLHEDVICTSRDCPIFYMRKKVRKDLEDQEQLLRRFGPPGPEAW
T4 sequence (P49005 whole entry, stated change not applied, chain 2 of 4): as the sequence (P49005 whole entry, stated change not applied) above
T4 sequence (Q15054 whole entry, stated change not applied, chain 3 of 4): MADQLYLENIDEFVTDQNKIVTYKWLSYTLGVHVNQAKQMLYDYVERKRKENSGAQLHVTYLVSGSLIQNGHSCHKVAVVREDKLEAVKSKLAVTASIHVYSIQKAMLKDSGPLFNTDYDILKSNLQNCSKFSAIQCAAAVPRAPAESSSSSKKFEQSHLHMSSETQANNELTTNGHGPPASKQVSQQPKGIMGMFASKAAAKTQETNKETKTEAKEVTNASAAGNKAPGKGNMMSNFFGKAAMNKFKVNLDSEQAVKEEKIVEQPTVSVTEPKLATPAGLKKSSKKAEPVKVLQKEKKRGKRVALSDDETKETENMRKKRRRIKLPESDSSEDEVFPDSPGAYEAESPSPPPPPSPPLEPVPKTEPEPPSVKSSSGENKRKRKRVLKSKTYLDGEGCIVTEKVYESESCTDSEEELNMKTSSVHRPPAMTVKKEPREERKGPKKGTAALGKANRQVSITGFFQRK
T4 sequence (Q9HCU8 whole entry, stated change not applied, chain 4 of 4): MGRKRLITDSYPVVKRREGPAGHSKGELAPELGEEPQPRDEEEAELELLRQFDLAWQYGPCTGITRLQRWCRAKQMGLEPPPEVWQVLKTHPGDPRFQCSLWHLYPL

DNA polymerase delta (Pol δ4), sequence (P28340 whole entry, stated change not applied, chain 1 of 4, the tested form may be a part): as the sequence (P28340 whole entry, stated change not applied, chain 1 of 4) above
DNA polymerase delta (Pol δ4), sequence (P49005 whole entry, stated change not applied, chain 2 of 4, further chain, the tested form may be a part): as the sequence (P49005 whole entry, stated change not applied) above
DNA polymerase delta (Pol δ4), sequence (Q15054 2-466, stated change not applied, chain 3 of 4, further chain): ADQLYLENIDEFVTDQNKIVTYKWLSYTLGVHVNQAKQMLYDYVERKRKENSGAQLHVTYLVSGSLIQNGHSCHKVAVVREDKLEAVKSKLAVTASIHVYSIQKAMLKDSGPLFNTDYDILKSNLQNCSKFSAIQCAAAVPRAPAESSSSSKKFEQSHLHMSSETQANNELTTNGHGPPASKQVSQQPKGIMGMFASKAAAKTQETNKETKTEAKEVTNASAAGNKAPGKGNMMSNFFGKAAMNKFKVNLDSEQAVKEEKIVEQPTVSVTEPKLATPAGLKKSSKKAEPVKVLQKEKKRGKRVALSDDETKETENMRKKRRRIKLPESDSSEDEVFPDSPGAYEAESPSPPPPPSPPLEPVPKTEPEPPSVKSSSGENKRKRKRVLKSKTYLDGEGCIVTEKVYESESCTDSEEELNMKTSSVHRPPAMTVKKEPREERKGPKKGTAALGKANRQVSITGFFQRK
DNA polymerase delta (Pol δ4), sequence (Q9HCU8 whole entry, stated change not applied, chain 4 of 4, further chain, the tested form may be a part): as the sequence (Q9HCU8 whole entry, stated change not applied, chain 4 of 4) above

B1: PDIP46 (protein)
chain: ADISLDELIRKRGAAAKGRLNARPGVGGVRSRVGIQQGLLSQSTRTATFQQRFDARQKIGLSDARLKLGVKDAREKLLQKDARFRIKGKVQDAREMLNSRKQQTTVPQKPRQVADAREKISLKRSSPAAFINPPIGTVTPALKLTKTIQVPQQKAMAPLHPHPAGMRINVVNNHQAKQNLYDLDEDDDGIASVPTKQMKFAASGGFLHHMAGLSSSKLSMSKALPLTKVVQNDAYTAPALPSSIRTKALTNMSRTLVNKEEPPKELPAAEPVLSPLEGTKMTVNNLHPRVTEEDIVELFCVCGALKRARLVHPGVAEVVFVKKDDAITAYKKYNNRCLDGQPMKCNLHMNGNVITSDQPILLRLSDSPSMKKESELPRRVNSASSSNPPAEVDPDTILKALFKSSGASVTTQPTEFKIKL
B1 was tested. Which Kd [1] did it give?
The Kd was 34 nM.

B2: GST-p50 deletion construct containing residues 252-400 of p50 (domain or fragment, human, UniProt P49005 252-400, looked up)
chain: TQSRDSINKAKYLTKKTQAASVEAVKMLDEILLQLSASVPVDVMPGEFDPTNYTLPQQPLHPCMFPLATAYSTLQLVTNPYQATIDGVRFLGTSGQNVSDIFRYSSMEDHLEILEWTLRVRHISPTAPDTLGCYPFYKTDPFIFPECPH
notes: Subcloned in pGEX-5X-3; source: E. coli BL21DE3 (pLysS), purified (glutathione beads)
Does B2 bind (His-tagged PDIP46)?
Result: binds

B3: GST-PDIP46 N-terminal fragment (residues 1-141) (domain or fragment, human, UniProt Q9BY77 1-141, looked up)
chain: MADISLDELIRKRGAAAKGRLNARPGVGGVRSRVGIQQGLLSQSTRTATFQQRFDARQKIGLSDARLKLGVKDAREKLLQKDARFRIKGKVQDAREMLNSRKQQTTVPQKPRQVADAREKISLKRSSPAAFINPPIGTVTP
notes: as for B2
Does B3 bind (Human PCNA, recombinant)?
Result: binds

B4: GST-PDIP46 (DNA polymerase δ interacting protein 46), wild type, full length (natural protein, human, UniProt Q9BY77 1-421, looked up)
chain: MADISLDELIRKRGAAAKGRLNARPGVGGVRSRVGIQQGLLSQSTRTATFQQRFDARQKIGLSDARLKLGVKDAREKLLQKDARFRIKGKVQDAREMLNSRKQQTTVPQKPRQVADAREKISLKRSSPAAFINPPIGTVTPALKLTKTIQVPQQKAMAPLHPHPAGMRINVVNNHQAKQNLYDLDEDDDGIASVPTKQMKFAASGGFLHHMAGLSSSKLSMSKALPLTKVVQNDAYTAPALPSSIRTKALTNMSRTLVNKEEPPKELPAAEPVLSPLEGTKMTVNNLHPRVTEEDIVELFCVCGALKRARLVHPGVAEVVFVKKDDAITAYKKYNNRCLDGQPMKCNLHMNGNVITSDQPILLRLSDSPSMKKESELPRRVNSASSSNPPAEVDPDTILKALFKSSGASVTTQPTEFKIKL
notes: PDIP46 (SKAR, POLDIP3), human, full-length; Subcloned in pGEX-5X-3; The functional rows used untagged PDIP46 (his-Sumo fusion, tags removed by Sumo protease, Mono S), not this GST fusion; also called GST-p46; SKAR; source: E. coli BL21DE3 (pLysS), purified (glutathione beads)
Does B4 bind [2]?
Result: binds

Does B4 bind [3]?
Result: binds
